To fix the notation:
T1: huWISP-2 (Homo sapiens, UniProt O76076)
T1 sequence (O76076 24-250): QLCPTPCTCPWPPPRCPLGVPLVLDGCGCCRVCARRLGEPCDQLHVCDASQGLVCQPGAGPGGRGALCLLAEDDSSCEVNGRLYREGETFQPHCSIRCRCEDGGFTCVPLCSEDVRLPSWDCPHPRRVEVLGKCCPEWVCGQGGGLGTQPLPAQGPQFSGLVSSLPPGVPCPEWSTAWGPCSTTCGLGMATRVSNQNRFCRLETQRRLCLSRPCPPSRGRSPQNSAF

T2: huWISP-1 (Homo sapiens, UniProt O95388)
T2 sequence (O95388 23-367): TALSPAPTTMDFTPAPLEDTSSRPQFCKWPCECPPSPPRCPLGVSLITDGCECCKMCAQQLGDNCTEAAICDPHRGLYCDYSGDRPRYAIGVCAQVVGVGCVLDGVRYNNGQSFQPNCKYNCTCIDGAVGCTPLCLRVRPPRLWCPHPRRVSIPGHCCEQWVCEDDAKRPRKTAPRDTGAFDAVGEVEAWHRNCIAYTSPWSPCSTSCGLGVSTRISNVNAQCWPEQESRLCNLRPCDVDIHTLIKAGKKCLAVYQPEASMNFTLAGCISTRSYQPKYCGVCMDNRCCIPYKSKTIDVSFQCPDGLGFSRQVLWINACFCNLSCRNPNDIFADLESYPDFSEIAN

T3: huCYR61 (Homo sapiens, UniProt O00622)
T3 sequence (O00622 25-381): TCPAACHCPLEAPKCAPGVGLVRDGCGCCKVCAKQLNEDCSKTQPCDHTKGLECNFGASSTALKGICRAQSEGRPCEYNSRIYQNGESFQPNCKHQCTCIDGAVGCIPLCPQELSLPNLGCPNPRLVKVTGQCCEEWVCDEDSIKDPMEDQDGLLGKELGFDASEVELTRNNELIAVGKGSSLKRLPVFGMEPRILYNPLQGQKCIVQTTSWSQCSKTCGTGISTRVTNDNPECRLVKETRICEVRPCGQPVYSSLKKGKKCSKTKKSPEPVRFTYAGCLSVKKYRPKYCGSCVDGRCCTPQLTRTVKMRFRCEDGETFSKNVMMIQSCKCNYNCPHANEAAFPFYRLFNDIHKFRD

B1: SEQ ID NO: 74: fusion protein comprising two CTGF-binding lipocalin muteins (protein)
chain: QDSTSDLIPAPPLSKVPLQQNFQDNQFQGKWYVVGLAGNAILREDKQPAKMFATIYELKEDKSYDVTSVRFEAKSCKYTIKTFVPGSQPGEFTAGYIKSAPGQTSTLVRVVSTNYNQHAMVFFKHVTQNREIFVITLYGRTKELTSELKENFIRFSKSLGLPENHIVFPVPIDQCIDGGGGGSGGGGSGGGGSQDSTSDLIPAPPLSKVPLQQNFQDNQFQGKWYVVGWAGNVKLREDKQPQKMSATIYELKEDKSYDVTEVVFEQKKCHYIIKTFVPGSQPGEFTAGDIKSPPGYTSSLVRVVSTNYNQHAMVFFKKVSQNREFFWITLYGRTKELTSELKENFIRFSKSLGLPENHIVFPVPIDQCIDG
modifications: fusion protein
B2: SEQ ID NO: 23: optimized CTGF-binding hNGAL lipocalin mutein (protein)
chain: QDSTSDLIPAPPLSKVPLQQNFQDNQFQGKWYVVGVAGNAILRPDKQPAKMFATIYELKEDKSYDVTSVRFEAKSCKYTIKTFVPGSQPGEFTSGQIKSAPGQTSTLVRVVSTNYNQHAMVFFKHVSQNREIFVITLYGRTKELTSELKENFIRFSKSLGLPENHIVFPVPIDQCIDG
modifications: lipocalin mutein
B3: SEQ ID NO: 15: optimized CTGF-binding hNGAL lipocalin mutein (protein)
chain: B2 chain with V36L, P44E, S94A, Q96Y, S127T
modifications: lipocalin mutein
B4: SEQ ID NO: 29: parent CTGF-binding hNGAL lipocalin mutein (protein)
chain: QDSTSDLIPAPPLSKVPLQQNFQDNQFHGKWYVVGWAGNIKLREDKDPFKMSATIYELKEDKSYNVTEVVFEQKKCHYIIKTFVPGSQPGEFTLGDIKSPPGETSSLVRVVSTNYNQHAMVFFKKVFQNREFFWITLYGRTKELTSELKENFIRFSKSLGLPENHIVFPVPIDQCIDG
modifications: lipocalin mutein
B5: SEQ ID NO: 7: parent CTGF-binding hNGAL lipocalin mutein (protein)
chain: QDSTSDLIPAPPLSKVPLQQNFQDNQFHGKWYVVGLAGNYGLRTDKRPSKMFATIYELKEDKSYDVTSVRFEQERCHYTIRTFVPGSQPGEFTTGSIKSRPGQTSSLVRVVSTNYNQHAMVFFKSVIQNREYFAITLYGRTKELTSELKENFIRFSKSLGLPENHIVFPVPIDQCIDG
modifications: lipocalin mutein
B6: SEQ ID NO: 9: parent CTGF-binding hNGAL lipocalin mutein (protein)
chain: B2 chain with Q28H, V36L, A40K, P44I, K74R, K77S, S94A, Q96N, I132T
modifications: lipocalin mutein
B7: SEQ ID NO: 25: parent CTGF-binding hNGAL lipocalin mutein (protein)
chain: QDSTSDLIPAPPLSKVPLQQNFQDNQFHGKWYVVGMAGNFRLREDKDPSKMGATIYELKEDKSYNVTQVQFDDKKCLYVIETFVPGSQPGEFTLGAIKSFPGFTSQLVRVVSTNYNQHAMVFFKKVYQNREVFWITLYGRTKELTSELKENFIRFSKSLGLPENHIVFPVPIDQCIDG
modifications: lipocalin mutein
B8: SEQ ID NO: 3: parent CTGF-binding hNGAL lipocalin mutein (protein)
chain: QDSTSDLIPAPPLSKVPLQQNFQDNQFHGKWYVVGRAGNNRLREDKDPPKMWATIYELKEDKSYNVTHVHFMTKKCRYIIDTFVPGSQPGEFTLGAIKSGPGMTSPLVRIVSTNYNQHAMVFFKWVNQNREWFTITLYGRTKELTSELKENFIRFSKSLGLPENHIVFPVPIDQCIDG
modifications: lipocalin mutein

Residue numbers refer to the chain shown, from its start.

T4 sequence (P29279 with tags, fused parts or gaps H83D): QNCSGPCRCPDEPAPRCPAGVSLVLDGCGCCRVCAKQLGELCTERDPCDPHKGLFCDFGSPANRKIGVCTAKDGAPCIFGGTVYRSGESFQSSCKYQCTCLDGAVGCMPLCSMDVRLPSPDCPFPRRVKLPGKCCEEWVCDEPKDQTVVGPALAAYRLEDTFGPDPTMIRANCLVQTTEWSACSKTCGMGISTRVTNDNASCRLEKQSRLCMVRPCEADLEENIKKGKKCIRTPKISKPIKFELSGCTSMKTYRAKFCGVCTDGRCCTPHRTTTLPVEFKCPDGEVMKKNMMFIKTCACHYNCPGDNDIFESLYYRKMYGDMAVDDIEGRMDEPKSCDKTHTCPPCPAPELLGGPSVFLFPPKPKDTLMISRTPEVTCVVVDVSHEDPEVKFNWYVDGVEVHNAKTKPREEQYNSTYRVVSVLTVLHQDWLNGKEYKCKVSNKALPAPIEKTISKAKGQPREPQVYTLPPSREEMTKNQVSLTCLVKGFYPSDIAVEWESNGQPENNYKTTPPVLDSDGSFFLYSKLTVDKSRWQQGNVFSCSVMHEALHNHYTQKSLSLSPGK

System in one data set: not listed separately
The experiment in a line: Thermal stability assessment by nanoDSC. Format: physicochemical. The note with it: 1 mg/mL in PBS, scan 25-100° C. at 1° C./min. Put shortly: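 CTGF-specific lipocalin muteins at 1 mg/mL in PBS scanned from 25 to 100° C at 1° C/min by capillary nano-DSC. Where several transitions occur, the Tm of the major unfolding event is reported, along with onset temperature. Some muteins were expressed in E. coli, others in CHO cells.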
Turning to B1, the “ONSET MELTING” value was found to be 62 °C.
Take B2: the “ONSET MELTING” value was 55 °C.
B3: the “ONSET MELTING” value came out at 59 °C.

The same data set, now with this note: 1 mg/mL in PBS, scan 25-100° C. at 1° C./min, major transition.
Turning to B4, the TM came to 76 °C.
Molecule B1 had a TM of 72 °C.
For the molecule B5, the TM worked out at 65 °C.
As for B2, the TM was 71 °C.
Consider B3, for which the TM was determined as 73 °C.
Molecule B6 yielded a TM of 64 °C.
In turn, B7 returned a TM of 66 °C.
Turning to B8, the TM came to 58 °C.

The target in the next data set is T1, huWISP-2. The data set is described as follows: Specificity ELISA (CCN proteins), huWISP-2. The format is binding. The note with it: coated 1 μg/ml; assessed when human CTGF signal approached saturation. Here is the method: (§1) Binding of muteins to closely related proteins of CTGF was tested by an ELISA assay. In detail, a 384-well plate suitable for fluorescence measurements (Greiner FLUOTRAC™ 600, black flat bottom, high-binding) was coated with 20 μl of human CTGF or the other members of the CCN protein family at a concentration of 1 μg/ml in PBS over night at 4° C. After washing with PBS with 0.05% Tween 20, wells were blocked with 100 μl blocking buffer containing 0.1% Tween 20 and 2% BSA (PBS-T/BSA) for 1 h at room temperature. 20 μl of serially diluted muteins starting at 1000 nM were incubated in PBS-T/BSA for 1 h at room temperature (RT).
(§2) The residual supernatants were discarded and 20 μl HRP-labeled anti-NGAL or anti-Strep-Tag antibody was added at a predetermined optimal concentration in PBS-T/BSA and incubated for 1 h at RT. After washing, 20 μl fluorogenic HRP substrate (QuantaBlu, Thermo) was added to each well, and the reaction was allowed to proceed for 2 to 60 minutes. The fluorescence intensity of every well on the plate was read using a fluorescence microplate reader (Tecan). When the signal for human CTGF approached saturation, the cross reactivity to the other proteins was assessed.
Turning to B4, the “ELISA binding to huWISP-2” value is “No binding”.
Turning to B1, the “ELISA binding to huWISP-2” value is on record as “No binding”.
For the molecule B5, the “ELISA binding to huWISP-2” value is listed as “No binding”.
For B2, the “ELISA binding to huWISP-2” value was “No binding”.
Turning to B3, the “ELISA binding to huWISP-2” value is reported as “No binding”.
For the molecule B6, the “ELISA binding to huWISP-2” value is “No binding”.
As for B7, the “ELISA binding to huWISP-2” value is listed as “No binding”.
On the same count and under the same terms, the value for B8 was “No binding”.

The next data set has as its target T4, human CTGF (Homo sapiens, UniProt P29279, H83D).
T4 construct: purchased Creative Biomart
The experiment in a line: SPR binding kinetics and affinity, human CTGF. The settings on record: 25° C., 1:1 binding model. The procedure, abridged: (§3)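 Biacore SPR at 25 °C; CTGF either Fc-captured via anti-human IgG (HBS-EP+) or amine-coupled to CM5 (300–1100 RU). Muteins injected 180 s contact, 900–3600 s dissociation, 30 μL/min.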
On to B4, for which the Kd stood at 11.2 nM and the “human CTGF kon” value came out at 100000 M⁻¹ s⁻¹.
For B5, the Kd is 60.2 nM and the “human CTGF kon” value is 97600 M⁻¹ s⁻¹.
For the molecule B2, the “human CTGF kon” value came to 122000 M⁻¹ s⁻¹.
On to B3, for which the “human CTGF kon” value was determined as 81700 M⁻¹ s⁻¹.
On to B6, for which binding was characterised by a dissociation constant (Kd) of 12.8 nM and the “human CTGF kon” value stood at 79800 M⁻¹ s⁻¹.
Consider B7, for which binding was characterised by a dissociation constant (Kd) of 9.27 nM and the “human CTGF kon” value stood at 26800 M⁻¹ s⁻¹.
With B8, binding was characterised by a dissociation constant (Kd) of 37.5 nM and the “human CTGF kon” value was 200000 M⁻¹ s⁻¹.

A further data set deals with T5, human CTGF (Homo sapiens, UniProt P29279).
T5 construct: purchased Creative Biomart
T5 sequence (P29279 with tags, fused parts or gaps H83D): as above
The data set is described as follows: SPR binding kinetics and affinity, human CTGF. The note with it: 25° C., 1:1 binding model. The procedure, abridged: as §3
B4: the “human CTGF koff” value is 0.00112 s⁻¹.
The same measure, in the same setting: the value for B5 was 0.00587 s⁻¹; that for B2 was 9.42e-06 s⁻¹.
B3: the “human CTGF koff” value worked out at 4.47e-05 s⁻¹.
In the case of B6, the “human CTGF koff” value worked out at 0.00102 s⁻¹.
In the case of B7, the “human CTGF koff” value was 0.000248 s⁻¹.
For the molecule B8, the “human CTGF koff” value came to 0.00749 s⁻¹.

The target in another data set is T2, huWISP-1. The experiment in a line: Specificity ELISA (CCN proteins), huWISP-1. The format is binding. The settings on record: coated 1 μg/ml; assessed when human CTGF signal approached saturation. As to the method:
as §1, §2
On to B4, for which the “ELISA binding to huWISP-1” value is on record as “No binding”.
As for B1, the “ELISA binding to huWISP-1” value is recorded as “No binding”.
For B5, the “ELISA binding to huWISP-1” value was “No binding”.
In the case of B2, the “ELISA binding to huWISP-1” value is “No binding”.
Turning to B3, the “ELISA binding to huWISP-1” value is on record as “No binding”.
Still for that read-out and setting: the entry for B6 is “No binding”; for B7 it is “No binding”; for B8 it is “No binding”.

For a further data set, the target named is T3, huCYR61. The data set is described as follows: Specificity ELISA (CCN proteins), huCYR61. Format: binding. The note with it: coated 1 μg/ml; assessed when human CTGF signal approached saturation. As to the method: as §1, §2
B4: the “ELISA binding to huCYR61” value was “No binding”.
Same read-out and setting: the entry for B1 is “No binding”; for B5 it is “No binding”; for B2 it is “No binding”.
Regarding B3, the “ELISA binding to huCYR61” value was “No binding”.
In the case of B6, the “ELISA binding to huCYR61” value is recorded as “No binding”.
In the case of B7, the “ELISA binding to huCYR61” value is reported as “No binding”.
Still for that read-out and setting: the entry for B8 is “No binding”.

The values above are taken from patent US20240228562A1, “NOVEL LIPOCALIN MUTEINS SPECIFIC FOR CONNECTIVE TISSUE GROWTH FACTOR (CTGF)” (PIERIS PHARMACEUTICALS GMBH, priority 2021, published 2024).
